Earlier results in US20220257789A1, “ANTI-TISSUE FACTOR ANTIBODY-DRUG CONJUGATES AND RELATED METHODS” (Iconic Therapeutics, Inc., priority 2019, published 2022).
Like-named read-outs stand apart in the source and are kept apart here.

Assays:
mTF = molecular target: T1, mTF (Mus musculus, UniProt P20352); settings: binds when a KD value can be measured on a ForteBio Octet
T1 sequence (P20352 29-294): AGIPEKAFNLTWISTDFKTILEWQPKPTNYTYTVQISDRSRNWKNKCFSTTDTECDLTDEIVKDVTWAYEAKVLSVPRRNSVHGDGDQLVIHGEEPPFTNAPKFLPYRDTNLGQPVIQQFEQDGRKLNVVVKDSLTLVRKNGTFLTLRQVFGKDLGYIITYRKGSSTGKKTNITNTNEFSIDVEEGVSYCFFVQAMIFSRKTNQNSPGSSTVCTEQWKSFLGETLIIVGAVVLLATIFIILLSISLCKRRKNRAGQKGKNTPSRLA

Row | Substance | dose limiting toxicities (6 mg/kg) | toxicity (dose of 2.2 mg/kg (de Bono et al. 2019)) | toxicity (dose of 3 mg/kg) | ALT and AST (in vivo) | binding to mouse TF (mTF)
1 | tisotumab vedotin: anti-TF fully human monoclonal antibody conjugated to MMAE with a protease-cleavable linker (Genmab) | grade 4 neutropenia and severe skin irritation and skin ulceration | dose limiting toxicity (e.g., neutropenia) | Neutropenia and skin toxicity | transient ALT and AST elevations | –
2 | humanized 5G9: humanized 5G9 anti-TF antibody described in Ngo et al., 2007; VH SEQ ID NO: 830, VL SEQ ID NO: 831 | – | – | – | – | do not bind to mouse TF
